Patent US20210179706A1
Values joined by “and” are separate entries in the source; they are usually repeats but may differ in a detail not shown here. Equal entries are not always repeated. Where two headings read alike, the source gives them in different places.

Assays:
[1] = target: human IL-1β-His-Bio (human) (UniProt P01584); experiment: ELISA, IL-1β-His-Bio captured on streptavidin; antibody 0.333 µg/mL diluted 1:3
[2] = target: human IL-1β-His-Bio (human) (UniProt P01584); experiment: ELISA, IL-1β-His-Bio captured on streptavidin; 4-parameter fit
[3] = target: human IL-1β-His-Bio (human) (UniProt P01584); experiment: ELISA, IL-1β-His-Bio captured on streptavidin; antibody 0.012 µg/mL
human IL-1β-hFc (human) [4] = target: human IL-1β-hFc (human) (UniProt P01584); experiment: competition ELISA on coated IL-1β-hFc, competitor IL-1R1(1-332)-his (anti-His-HRP read-out); antibody 0.001 µg/mL
human IL-1β-hFc (human) [5] = target: human IL-1β-hFc (human) (UniProt P01584); experiment: competition ELISA on coated IL-1β-hFc, competitor IL-1R1(1-332)-his (anti-His-HRP read-out); antibody 0.012 µg/mL
[6] = target: human IL-1β-His-Bio (human) (UniProt P01584); experiment: ELISA, IL-1β-His-Bio captured on streptavidin; antibody 0.333 µg/mL
human IL-1β-hFc (human) [7] = target: human IL-1β-hFc (human) (UniProt P01584); experiment: competition ELISA on coated IL-1β-hFc, competitor IL-1R1(1-332)-his (anti-His-HRP read-out); antibody 0.004 µg/mL
[8] = target: human IL-1β-His-Bio (human) (UniProt P01584); experiment: ELISA, IL-1β-His-Bio captured on streptavidin; antibody 0.037 µg/mL
[9] = target: human IL-1β-His-Bio (human) (UniProt P01584); experiment: ELISA, IL-1β-His-Bio captured on streptavidin; antibody 0.333 µg/mL diluted 1:729
[10] = target: human IL-1β-His-Bio (human) (UniProt P01584); experiment: ELISA, IL-1β-His-Bio captured on streptavidin; 4-parameter fit; remark: listed apart in the source
[11] = target: human IL-1β-His-Bio (human) (UniProt P01584); experiment: ELISA, IL-1β-His-Bio captured on streptavidin; antibody 0.333 µg/mL diluted 1:27
human IL-1β-hFc (human) [12] = target: human IL-1β-hFc (human) (UniProt P01584); experiment: competition ELISA on coated IL-1β-hFc, competitor IL-1R1(1-332)-his (anti-His-HRP read-out); antibody 0.012 µg/mL; remark: listed apart in the source
human IL-1β-hFc (human) [13] = target: human IL-1β-hFc (human) (UniProt P01584); experiment: competition ELISA on coated IL-1β-hFc, competitor IL-1R1(1-332)-his (anti-His-HRP read-out); antibody 1.000 µg/mL
human IL-1β-hFc (human) [14] = target: human IL-1β-hFc (human) (UniProt P01584); experiment: competition ELISA on coated IL-1β-hFc, competitor IL-1R1(1-332)-his (anti-His-HRP read-out); antibody 0.037 µg/mL
[15] = target: human IL-1β-His-Bio (human) (UniProt P01584); experiment: ELISA, IL-1β-His-Bio captured on streptavidin; antibody 0.111 µg/mL
[16] = target: human IL-1β-His-Bio (human) (UniProt P01584); experiment: ELISA, IL-1β-His-Bio captured on streptavidin; antibody 1 µg/mL
[17] = target: human IL-1β-His-Bio (human) (UniProt P01584); experiment: ELISA, IL-1β-His-Bio captured on streptavidin; antibody 0.004 µg/mL
[18] = target: human IL-1β-His-Bio (human) (UniProt P01584); experiment: ELISA, IL-1β-His-Bio captured on streptavidin; antibody 0.333 µg/mL diluted 1:81
human IL-1β-hFc (human) [19] = target: human IL-1β-hFc (human) (UniProt P01584); experiment: competition ELISA on coated IL-1β-hFc, competitor IL-1R1(1-332)-his (anti-His-HRP read-out); antibody 0.037 µg/mL; remark: listed apart in the source
human IL-1β-hFc (human) [20] = target: human IL-1β-hFc (human) (UniProt P01584); experiment: competition ELISA on coated IL-1β-hFc, competitor IL-1R1(1-332)-his (anti-His-HRP read-out); antibody 0.111 µg/mL
human IL-1β-hFc (human) [21] = target: human IL-1β-hFc (human) (UniProt P01584); experiment: competition ELISA on coated IL-1β-hFc, competitor IL-1R1(1-332)-his (anti-His-HRP read-out); antibody 0.333 µg/mL
[22] = target: human IL-1β-His-Bio (human) (UniProt P01584); experiment: ELISA, IL-1β-His-Bio captured on streptavidin; antibody 0.001 µg/mL
human IL-1β-hFc (human) [23] = target: human IL-1β-hFc (human) (UniProt P01584); experiment: competition ELISA on coated IL-1β-hFc, competitor IL-1R1(1-332)-his; 4-parameter fit
human IL-1β-hFc (human) [24] = target: human IL-1β-hFc (human) (UniProt P01584); experiment: competition ELISA on coated IL-1β-hFc, competitor IL-1R1(1-332)-his (anti-His-HRP read-out); antibody 0.333 µg/mL; remark: listed apart in the source
[25] = target: human IL-1β-His-Bio (human) (UniProt P01584); experiment: ELISA, IL-1β-His-Bio captured on streptavidin; antibody 0.333 µg/mL diluted 1:9
human IL-1β-hFc (human) [26] = target: human IL-1β-hFc (human) (UniProt P01584); experiment: competition ELISA on coated IL-1β-hFc, competitor IL-1R1(1-332)-his (anti-His-HRP read-out); antibody 0.111 µg/mL; remark: listed apart in the source
human IL-1β-his (human) = human IL-1β-his (human) (UniProt P01584); experiment: SPR (Biacore), antibody amine-coupled on CM5, IL-1β 1.56-25 nM as analyte
[27] = target: human IL-1β-His-Bio (human) (UniProt P01584); experiment: ELISA, IL-1β-His-Bio captured on streptavidin; antibody 0.333 µg/mL diluted 1:243
human IL-1β-hFc (human) [28] = target: human IL-1β-hFc (human) (UniProt P01584); experiment: competition ELISA on coated IL-1β-hFc, competitor IL-1R1(1-332)-his (anti-His-HRP read-out); antibody 0.004 µg/mL; remark: listed apart in the source
human IL-1β-hFc (human) [29] = target: human IL-1β-hFc (human) (UniProt P01584); experiment: competition ELISA on coated IL-1β-hFc, competitor IL-1R1(1-332)-his (anti-His-HRP read-out); antibody 1.000 µg/mL; remark: listed apart in the source
[30] = target: human IL-1β-His-Bio (human) (UniProt P01584); experiment: ELISA, IL-1β-His-Bio captured on streptavidin; antibody 0.333 µg/mL; remark: listed apart in the source
human IL-1β-hFc (human) [31] = target: human IL-1β-hFc (human) (UniProt P01584); experiment: competition ELISA on coated IL-1β-hFc, competitor IL-1R1(1-332)-his (anti-His-HRP read-out); antibody 0.001 µg/mL; remark: listed apart in the source
human IL-1β-hFc (human) [32] = target: human IL-1β-hFc (human) (UniProt P01584); experiment: competition ELISA on coated IL-1β-hFc, competitor IL-1R1(1-332)-his; 4-parameter fit; remark: listed apart in the source

- OD (450 nm) [1]: 2.68 OD450 and 2.88 OD450
- EC50 [2]: 0.039 nM
- OD (450 nm) [3]: 2.06 OD450 and 2.12 OD450
- OD (450 nm) of blocking assay (human IL-1β-hFc (human) [4]): 0.577 OD450 and 0.72 OD450
- OD (450 nm) of blocking assay (human IL-1β-hFc (human) [5]): 0.797 OD450 and 0.706 OD450
- OD (450 nm) [6]: 2.81 OD450 and 2.94 OD450
- OD (450 nm) of blocking assay (human IL-1β-hFc (human) [7]): 0.765 OD450 and 0.735 OD450
- OD (450 nm) [8]: 2.64 OD450 and 2.68 OD450
- OD (450 nm) [9]: 0.315 OD450
- EC50 [10]: 0.057 nM
- OD (450 nm) [11]: 1.7 OD450 and 1.96 OD450
- OD (450 nm) of blocking assay (human IL-1β-hFc (human) [12]): 0.572 OD450 and 0.579 OD450
- OD (450 nm) of blocking assay (human IL-1β-hFc (human) [13]): 0.093 OD450 and 0.088 OD450
- OD (450 nm) of blocking assay (human IL-1β-hFc (human) [14]): 0.736 OD450 and 0.705 OD450
- OD (450 nm) [15]: 2.9 OD450 and 2.89 OD450
- OD (450 nm) [16]: 2.87 OD450
- OD (450 nm) [17]: 1.26 OD450 and 1.2 OD450
- OD (450 nm) [18]: 0.852 OD450 and 1.11 OD450
- OD (450 nm) of blocking assay (human IL-1β-hFc (human) [19]): 0.366 OD450 and 0.379 OD450
- OD (450 nm) of blocking assay (human IL-1β-hFc (human) [20]): 0.091 OD450 and 0.092 OD450
- OD (450 nm) of blocking assay (human IL-1β-hFc (human) [21]): 0.104 OD450 and 0.126 OD450
- OD (450 nm) [22]: 0.581 OD450 and 0.559 OD450
- EC50 (human IL-1β-hFc (human) [23]): 0.961 nM
- OD (450 nm) of blocking assay (human IL-1β-hFc (human) [24]): 0.059 OD450 and 0.057 OD450
- OD (450 nm) [25]: 2.46 OD450 and 2.61 OD450
- OD (450 nm) of blocking assay (human IL-1β-hFc (human) [26]): 0.519 OD450 and 0.526 OD450
- Kd (human IL-1β-his (human)): 0.0979 nM
- OD (450 nm) [27]: 0.408 OD450 and 0.573 OD450
- OD (450 nm) of blocking assay (human IL-1β-hFc (human) [28]): 0.727 OD450 and 0.684 OD450
- OD (450 nm) of blocking assay (human IL-1β-hFc (human) [29]): 0.053 OD450 and 0.052 OD450
- OD (450 nm) [30]: 2.9 OD450 and 2.88 OD450
- OD (450 nm) of blocking assay (human IL-1β-hFc (human) [31]): 0.738 OD450 and 0.559 OD450
- EC50 (human IL-1β-hFc (human) [32]): 0.26 nM
Substance: canakinumab (trade name Ilaris) (antibody)
